± gives the standard deviation of the averaged measurements.
B1: library; a variant is named by its letters at N, in order (parent)
chain: GCUGUCACCGGAAUACCAGCAUCGUCUUGAUGCCCUUGGAAGUCCGGUCUGAUGAGUCCNNNNNGGACGAAACAGC

Columns and labels:
[1] = variants of: B1; experiment: FACS-Seq fitted mean relative fluorescence mCherry/BFP without ligand (log10 relative fluorescence); higher = higher reporter protein expression; settings: HEK293T, ligand present: no
In short: (§1)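 Reporter cells were enriched HEK293T libraries transduced by lentivirus with mCherry behind the ribozyme switch and with an EF1α-BFP marker. Following 48 h with or without ligand, they were sorted into 6 mCherry/BFP bins, and bin genomic DNA was PCR-amplified, barcoded and MiSeq-sequenced. Fluorescence was computed as the fitted normal mean of the bin counts. The fit used log10(mCherry/BFP), with scaling to five spiked-in control ribozymes.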

[2] = variants of: B1; experiment: normalized RNA/DNA level with ligand (relative to sTRSVctl = 100) (log10 (% of sTRSVctl)); higher = less ribozyme self-cleavage, higher mRNA level; settings: ligand concentration (+) RNA-Seq: 5 mM, HEK293T, reporter: mCherry (pCS4076), ligand present: yes
In short: (§2)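 For each 6-well well, 4 µg of library plasmid encoding mCherry-linked ribozyme switches, or eGFP-linked ones in some ligand experiments, was transfected into HEK293T. Any ligand was added 1 h before transfection, and RNA was extracted with EDTA 72 h after it, then reverse-transcribed, amplified, barcoded and sequenced. RNA level was obtained by dividing RNA reads by DNA reads, normalizing to a spiked-in non-cleaving sequence or to the top sequences, then scaling and log-transforming. The top set was 25 sequences, scaling was ×100 with log10, and ≥100 DNA reads were required.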

[3] = variants of: B1; experiment: normalized RNA/DNA level without ligand (relative to sTRSVctl = 100) (log10 (% of sTRSVctl)); higher = less ribozyme self-cleavage, higher mRNA level; settings: HEK293T, reporter: mCherry (pCS4076), ligand present: no
In short: as §2

[4] = variants of: B1; experiment: FACS-Seq fitted mean relative fluorescence mCherry/BFP with ligand (log10 relative fluorescence); ligand concentration (+) FACS-Seq: 1 mM; higher = higher reporter protein expression; settings: HEK293T, ligand present: yes
In short: as §1

Row | Variant | FACS-Seq fitted mean (log10) [1] | normalized RNA/DNA level with ligand (log10) [2] | normalized RNA/DNA level without ligand (log10) [3] | FACS-Seq fitted mean (log10) [4]
1 | GCUGUCACCGGAAUACCAGCAUCGUCUUGAUGCCCUUGGAAGUCCGGUCUGAUGAGUCCAGCAAGGACGAAACAGC | 0.327 ± 0.12 | 1.94 ± 0.035 | 1.46 ± 0.09 | 0.627 ± 0.067
2 | GCUGUCACCGGAAUACCAGCAUCGUCUUGAUGCCCUUGGAAGUCCGGUCUGAUGAGUCCAGCACGGACGAAACAGC | 0.712 ± 0.13 | 2.08 ± 0.088 | 1.91 ± 0.12 | 0.669 ± 0.012
3 | GCUGUCACCGGAAUACCAGCAUCGUCUUGAUGCCCUUGGAAGUCCGGUCUGAUGAGUCCCGCACGGACGAAACAGC | 0.436 ± 0.065 | 2.01 ± 0.17 | 1.9 ± 0.14 | 0.521 ± 0.017
4 | GCUGUCACCGGAAUACCAGCAUCGUCUUGAUGCCCUUGGAAGUCCGGUCUGAUGAGUCCCGCAAGGACGAAACAGC | 0.17 ± 0.043 | 1.888 ± 0.006 | 1.49 ± 0.074 | 0.271 ± 0.06
5 | GCUGUCACCGGAAUACCAGCAUCGUCUUGAUGCCCUUGGAAGUCCGGUCUGAUGAGUCCUGAUGGGACGAAACAGC | 0.912 ± 0.0092 | 2.005 ± 0.00081 | 1.91 ± 0.14 | 0.848 ± 0.11
6 | GCUGUCACCGGAAUACCAGCAUCGUCUUGAUGCCCUUGGAAGUCCGGUCUGAUGAGUCCUGAUUGGACGAAACAGC | 0.448 ± 0.028 | 1.96 ± 0.071 | 1.7 ± 0.12 | 0.437 ± 0.11
7 | GCUGUCACCGGAAUACCAGCAUCGUCUUGAUGCCCUUGGAAGUCCGGUCUGAUGAGUCCCGAUUGGACGAAACAGC | 0.31 ± 0.2 | 1.98 ± 0.13 | 1.51 ± 0.15 | 0.579 ± 0.022
8 | GCUGUCACCGGAAUACCAGCAUCGUCUUGAUGCCCUUGGAAGUCCGGUCUGAUGAGUCCAGAUUGGACGAAACAGC | 0.511 ± 0.068 | 1.99 ± 0.12 | 1.736 ± 0.01 | 0.627 ± 0.07
9 | GCUGUCACCGGAAUACCAGCAUCGUCUUGAUGCCCUUGGAAGUCCGGUCUGAUGAGUCCAGAUGGGACGAAACAGC | 0.533 ± 0.011 | 1.9309 ± 0.0011 | 1.803 ± 0.017 | 0.4899 ± 0.0023
